Test results reported in the Human Domainome abundance scans (Beltran et al. 2025).
± gives the uncertainty stated by the source.

Assay: abundance fitness (aPCA) (normalised: wild type 0, dead -1); higher = more abundant; growth selection in yeast, the domain comes from the species named
Conditions: Homo sapiens

Row | Substance | abundance fitness
1 | DnaJ homolog subfamily B member 1 Y5M, P25685 | -0.179 ± 0.11
2 | DnaJ homolog subfamily B member 1 E19L, P25685 | -0.32 ± 0.069
3 | DnaJ homolog subfamily B member 1 Y24I, P25685 | -0.788 ± 0.2
4 | DnaJ homolog subfamily B member 1 R61F, P25685 | -0.756 ± 0.18
5 | DnaJ homolog subfamily B member 1 E62Q, P25685 | -0.353 ± 0.12
6 | DnaJ homolog subfamily B member 1 S56A, P25685 | -0.142 ± 0.085
7 | DnaJ homolog subfamily B member 1 K35D, P25685 | -0.193 ± 0.13
8 | DnaJ homolog subfamily B member 1 D53I, P25685 | -0.224 ± 0.11
9 | DnaJ homolog subfamily B member 1 E18V, P25685 | -0.209 ± 0.061
10 | DnaJ homolog subfamily B member 1 T8P, P25685 | -0.333 ± 0.067
11 | DnaJ homolog subfamily B member 1 K60I, P25685 | -0.654 ± 0.16
12 | DnaJ homolog subfamily B member 1 A23K, P25685 | -0.612 ± 0.11
13 | DnaJ homolog subfamily B member 1 E38R, P25685 | -0.172 ± 0.091
14 | DnaJ homolog subfamily B member 1 A51K, P25685 | -0.885 ± 0.15
15 | DnaJ homolog subfamily B member 1 K35P, P25685 | -0.365 ± 0.1
16 | DnaJ homolog subfamily B member 1 L9P, P25685 | -0.726 ± 0.082
17 | DnaJ homolog subfamily B member 1 Y31Q, P25685 | -0.181 ± 0.12
18 | DnaJ homolog subfamily B member 1 K44L, P25685 | -0.144 ± 0.051
19 | DnaJ homolog subfamily B member 1 I63V, P25685 | 0.016 ± 0.065
20 | DnaJ homolog subfamily B member 1 D4E, P25685 | -0.186 ± 0.19
21 | DnaJ homolog subfamily B member 1 K35Y, P25685 | -0.632 ± 0.13
22 | DnaJ homolog subfamily B member 1 R61V, P25685 | -0.429 ± 0.077
23 | DnaJ homolog subfamily B member 1 K60D, P25685 | -0.442 ± 0.13
24 | DnaJ homolog subfamily B member 1 L55I, P25685 | -0.354 ± 0.11
25 | DnaJ homolog subfamily B member 1 I20N, P25685 | -1.02 ± 0.11
26 | DnaJ homolog subfamily B member 1 K44D, P25685 | -0.356 ± 0.15

Row | Substance | abundance fitness
27 | DnaJ homolog subfamily B member 1 Y6F, P25685 | -0.162 ± 0.16
28 | DnaJ homolog subfamily B member 1 A41T, P25685 | -0.055 ± 0.068
29 | DnaJ homolog subfamily B member 1 K35A, P25685 | -0.359 ± 0.082
30 | DnaJ homolog subfamily B member 1 P33A, P25685 | -0.055 ± 0.075
31 | DnaJ homolog subfamily B member 1 L55R, P25685 | -0.769 ± 0.069
32 | DnaJ homolog subfamily B member 1 E42S, P25685 | -0.016 ± 0.065
33 | DnaJ homolog subfamily B member 1 R25T, P25685 | -0.181 ± 0.11
34 | DnaJ homolog subfamily B member 1 K37C, P25685 | -0.267 ± 0.14
35 | DnaJ homolog subfamily B member 1 N36W, P25685 | -0.097 ± 0.099
36 | DnaJ homolog subfamily B member 1 E47T, P25685 | -0.118 ± 0.068
37 | DnaJ homolog subfamily B member 1 K37Y, P25685 | -0.277 ± 0.15
38 | DnaJ homolog subfamily B member 1 G14R, P25685 | -0.274 ± 0.056
39 | DnaJ homolog subfamily B member 1 Y5L, P25685 | -0.284 ± 0.14
40 | DnaJ homolog subfamily B member 1 I20E, P25685 | -0.956 ± 0.15
41 | DnaJ homolog subfamily B member 1 E47S, P25685 | -0.099 ± 0.072
42 | DnaJ homolog subfamily B member 1 S16H, P25685 | -0.24 ± 0.13
43 | DnaJ homolog subfamily B member 1 S56I, P25685 | -0.174 ± 0.36
44 | DnaJ homolog subfamily B member 1 G10M, P25685 | -0.191 ± 0.085
45 | DnaJ homolog subfamily B member 1 P39C, P25685 | -0.016 ± 0.15
46 | DnaJ homolog subfamily B member 1 P58S, P25685 | -0.112 ± 0.089
47 | DnaJ homolog subfamily B member 1 E50M, P25685 | -0.181 ± 0.12
48 | DnaJ homolog subfamily B member 1 K46A, P25685 | -0.277 ± 0.35
49 | DnaJ homolog subfamily B member 1 R61E, P25685 | -0.362 ± 0.11
50 | DnaJ homolog subfamily B member 1 Y31V, P25685 | -0.234 ± 0.12
51 | DnaJ homolog subfamily B member 1 D53M, P25685 | -0.124 ± 0.09
52 | DnaJ homolog subfamily B member 1 K44C, P25685 | -0.208 ± 0.14

Row | Substance | abundance fitness
53 | DnaJ homolog subfamily B member 1 R25D, P25685 | -0.15 ± 0.13
54 | DnaJ homolog subfamily B member 1 A23T, P25685 | -0.339 ± 0.11
55 | DnaJ homolog subfamily B member 1 K44Y, P25685 | -0.268 ± 0.1
56 | DnaJ homolog subfamily B member 1 R25M, P25685 | -0.078 ± 0.12
57 | DnaJ homolog subfamily B member 1 T8S, P25685 | -0.149 ± 0.093
58 | DnaJ homolog subfamily B member 1 S16I, P25685 | -0.371 ± 0.11
59 | DnaJ homolog subfamily B member 1 G10K, P25685 | -0.108 ± 0.1
60 | DnaJ homolog subfamily B member 1 K35V, P25685 | -0.396 ± 0.1
61 | DnaJ homolog subfamily B member 1 D57S, P25685 | -0.097 ± 0.076
62 | DnaJ homolog subfamily B member 1 E19I, P25685 | -0.659 ± 0.12
63 | DnaJ homolog subfamily B member 1 E18S, P25685 | -0.093 ± 0.074
64 | DnaJ homolog subfamily B member 1 D65Q, P25685 | -0.124 ± 0.11
65 | DnaJ homolog subfamily B member 1 R13M, P25685 | -0.219 ± 0.092
66 | DnaJ homolog subfamily B member 1 E50I, P25685 | -0.011 ± 0.1
67 | DnaJ homolog subfamily B member 1 D65G, P25685 | -0.197 ± 0.11
68 | DnaJ homolog subfamily B member 1 D53K, P25685 | -0.067 ± 0.11
69 | DnaJ homolog subfamily B member 1 D34G, P25685 | -0.012 ± 0.11
70 | DnaJ homolog subfamily B member 1 A23I, P25685 | -0.819 ± 0.11
71 | DnaJ homolog subfamily B member 1 L11E, P25685 | -0.5 ± 0.15
72 | DnaJ homolog subfamily B member 1 R61K, P25685 | -0.247 ± 0.16
73 | DnaJ homolog subfamily B member 1 I63P, P25685 | 0.08 ± 0.11
74 | DnaJ homolog subfamily B member 1 E47R, P25685 | -0.071 ± 0.068
75 | DnaJ homolog subfamily B member 1 K44W, P25685 | -0.315 ± 0.11
76 | DnaJ homolog subfamily B member 1 H32A, P25685 | -0.154 ± 0.16
77 | DnaJ homolog subfamily B member 1 Y5E, P25685 | -0.808 ± 0.28
78 | DnaJ homolog subfamily B member 1 S16T, P25685 | -0.057 ± 0.092

Row | Substance | abundance fitness
79 | DnaJ homolog subfamily B member 1 E38W, P25685 | -0.019 ± 0.081
80 | DnaJ homolog subfamily B member 1 D53L, P25685 | -0.058 ± 0.066
81 | DnaJ homolog subfamily B member 1 D57K, P25685 | -0.123 ± 0.13
82 | DnaJ homolog subfamily B member 1 D57L, P25685 | -0.53 ± 0.061
83 | DnaJ homolog subfamily B member 1 N36S, P25685 | 0.079 ± 0.06
84 | DnaJ homolog subfamily B member 1 L11Y, P25685 | -1.1 ± 0.13
85 | DnaJ homolog subfamily B member 1 K35S, P25685 | -0.438 ± 0.064
86 | DnaJ homolog subfamily B member 1 E19R, P25685 | -0.452 ± 0.083
87 | DnaJ homolog subfamily B member 1 D34I, P25685 | -0.233 ± 0.1
88 | DnaJ homolog subfamily B member 1 L9V, P25685 | -0.697 ± 0.17
89 | DnaJ homolog subfamily B member 1 D34S, P25685 | 0.075 ± 0.061
90 | DnaJ homolog subfamily B member 1 E43Q, P25685 | 0.086 ± 0.1
91 | DnaJ homolog subfamily B member 1 A41V, P25685 | -0.02 ± 0.075
92 | DnaJ homolog subfamily B member 1 D17P, P25685 | -0.18 ± 0.071
93 | DnaJ homolog subfamily B member 1 L29K, P25685 | -0.116 ± 0.08
94 | DnaJ homolog subfamily B member 1 Y5G, P25685 | -0.672 ± 0.092
95 | DnaJ homolog subfamily B member 1 E19G, P25685 | -0.539 ± 0.078
96 | DnaJ homolog subfamily B member 1 I48R, P25685 | -0.74 ± 0.075
97 | DnaJ homolog subfamily B member 1 A49E, P25685 | 0.126 ± 0.094
98 | DnaJ homolog subfamily B member 1 A23N, P25685 | -0.169 ± 0.12
99 | DnaJ homolog subfamily B member 1 T8E, P25685 | -0.239 ± 0.11
100 | DnaJ homolog subfamily B member 1 G14N, P25685 | -0.232 ± 0.15
101 | DnaJ homolog subfamily B member 1 A28P, P25685 | -0.953 ± 0.16
102 | DnaJ homolog subfamily B member 1 A49G, P25685 | -0.187 ± 0.12
103 | DnaJ homolog subfamily B member 1 A28G, P25685 | -0.106 ± 0.086
